Source: patent US20210054097A1 (Novo Nordisk, published 2021)
Ends that are not written are not given here.

Legend:
[1] = target: T1, FX activation peptide 12-mer SVAQATSSSGEA (human); assay: peptide ELISA
T1 peptide: SVAQATSSSGEA-biotin
Method in brief: (§1)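 Nanobodies (FLAG-tagged) or IgG antibodies, 2 μg/mL, incubated 1 h on C-terminally biotinylated peptide captured via streptavidin, washing buffer pH 8.60 containing CaCl₂ and Tween 20. Read-out: HRP-conjugated secondary antibody with TMB colour development.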

[2] = target: T2, FX activation peptide 12-mer VAQATSSSGEAP (human); assay: peptide ELISA
T2 peptide: VAQATSSSGEAP-biotin
Method in brief: as §1

[3] = target: T3, FX activation peptide 12-mer AQATSSSGEAPD (human); assay: peptide ELISA
T3 peptide: AQATSSSGEAPD-biotin
Method in brief: as §1

[4] = target: T4, FX activation peptide 12-mer ATSSSGEAPDSI (human); assay: peptide ELISA
T4 peptide: ATSSSGEAPDSI-biotin
Method in brief: as §1

[5] = target: T5, FX activation peptide 12-mer TSSSGEAPDSIT (human); assay: peptide ELISA
T5 peptide: TSSSGEAPDSIT-biotin
Method in brief: as §1

[6] = target: T6, FX activation peptide 12-mer SSSGEAPDSITW (human); assay: peptide ELISA
T6 peptide: SSSGEAPDSITW-biotin
Method in brief: as §1

[7] = target: T7, FX activation peptide 12-mer SSGEAPDSITWK (human); assay: peptide ELISA
T7 peptide: SSGEAPDSITWK-biotin
Method in brief: as §1

[8] = target: T8, FX activation peptide 12-mer GEAPDSITWKPY (human); assay: peptide ELISA
T8 peptide: GEAPDSITWKPY-biotin
Method in brief: as §1

[9] = target: T9, FX activation peptide 12-mer EAPDSITWKPYD (human); assay: peptide ELISA
T9 peptide: EAPDSITWKPYD-biotin
Method in brief: as §1

[10] = target: T10, FX activation peptide 12-mer APDSITWKPYDA (human); assay: peptide ELISA
T10 peptide: APDSITWKPYDA-biotin
Method in brief: as §1

[11] = target: T11, FX activation peptide 12-mer PDSITWKPYDAA (human); assay: peptide ELISA
T11 peptide: PDSITWKPYDAA-biotin
Method in brief: as §1

[12] = target: T12, FX activation peptide 12-mer DSITWKPYDAAD (human); assay: peptide ELISA
T12 peptide: DSITWKPYDAAD-biotin
Method in brief: as §1

[13] = target: T13, FX activation peptide 12-mer SITWKPYDAADL (human); assay: peptide ELISA
T13 peptide: SITWKPYDAADL-biotin
Method in brief: as §1

[14] = target: T14, FX activation peptide 12-mer ITWKPYDAADLD (human); assay: peptide ELISA
T14 peptide: ITWKPYDAADLD-biotin
Method in brief: as §1

[15] = target: T15, FX activation peptide 12-mer TWKPYDAADLDP (human); assay: peptide ELISA
T15 peptide: TWKPYDAADLDP-biotin
Method in brief: as §1

[16] = target: T16, FX activation peptide 12-mer WKPYDAADLDPT (human); assay: peptide ELISA
T16 peptide: WKPYDAADLDPT-biotin
Method in brief: as §1

[17] = target: T17, FX activation peptide 12-mer KPYDAADLDPTE (human); assay: peptide ELISA
T17 peptide: KPYDAADLDPTE-biotin
Method in brief: as §1

[18] = target: T18, FX activation peptide 12-mer PYDAADLDPTEN (human); assay: peptide ELISA
T18 peptide: PYDAADLDPTEN-biotin
Method in brief: as §1

[19] = target: T19, FX activation peptide 12-mer DAADLDPTENPF (human); assay: peptide ELISA
T19 peptide: DAADLDPTENPF-biotin
Method in brief: as §1

[20] = target: T20, FX activation peptide 12-mer AADLDPTENPFD (human); assay: peptide ELISA
T20 peptide: AADLDPTENPFD-biotin
Method in brief: as §1

[21] = target: T21, FX activation peptide 12-mer ADLDPTENPFDL (human); assay: peptide ELISA
T21 peptide: ADLDPTENPFDL-biotin
Method in brief: as §1

[22] = target: T22, FX activation peptide 12-mer LDPTENPFDLLD (human); assay: peptide ELISA
T22 peptide: LDPTENPFDLLD-biotin
Method in brief: as §1

[23] = target: T23, FX activation peptide 12-mer TENPFDLLDFNQ (human); assay: peptide ELISA
T23 peptide: TENPFDLLDFNQ-biotin
Method in brief: as §1

[24] = target: T24, FX activation peptide 12-mer NPFDLLDFNQTQ (human); assay: peptide ELISA
T24 peptide: NPFDLLDFNQTQ-biotin
Method in brief: as §1

[25] = target: T25, FX activation peptide 12-mer FDLLDFNQTQPE (human); assay: peptide ELISA
T25 peptide: FDLLDFNQTQPE-biotin
Method in brief: as §1

[26] = target: T26, FX activation peptide 12-mer DLLDFNQTQPER (human); assay: peptide ELISA
T26 peptide: DLLDFNQTQPER-biotin
Method in brief: as §1

[27] = target: T27, FX activation peptide 12-mer LDFNQTQPERGD (human); assay: peptide ELISA
T27 peptide: LDFNQTQPERGD-biotin
Method in brief: as §1

[28] = target: T28, FX activation peptide 12-mer DFNQTQPERGDN (human); assay: peptide ELISA
T28 peptide: DFNQTQPERGDN-biotin
Method in brief: as §1

[29] = target: T29, FX activation peptide 12-mer FNQTQPERGDNN (human); assay: peptide ELISA
T29 peptide: FNQTQPERGDNN-biotin
Method in brief: as §1

[30] = target: T30, FX activation peptide 12-mer NQTQPERGDNNL (human); assay: peptide ELISA
T30 peptide: NQTQPERGDNNL-biotin
Method in brief: as §1

[31] = target: T31, FX activation peptide 12-mer TQPERGDNNLTR (human); assay: peptide ELISA
T31 peptide: TQPERGDNNLTR-biotin
Method in brief: as §1

[32] = target: human plasma-derived Factor X zymogen (human, UniProt P00742 41-179; P00742 183-488); assay: cell-based or functional assay
Sequence of human plasma-derived Factor X zymogen (P00742 41-179, chain 1 of 2): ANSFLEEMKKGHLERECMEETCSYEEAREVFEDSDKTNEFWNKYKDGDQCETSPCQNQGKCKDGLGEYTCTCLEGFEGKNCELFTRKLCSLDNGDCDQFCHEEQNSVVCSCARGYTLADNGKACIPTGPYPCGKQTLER
Sequence of human plasma-derived Factor X zymogen (P00742 183-488, chain 2 of 2): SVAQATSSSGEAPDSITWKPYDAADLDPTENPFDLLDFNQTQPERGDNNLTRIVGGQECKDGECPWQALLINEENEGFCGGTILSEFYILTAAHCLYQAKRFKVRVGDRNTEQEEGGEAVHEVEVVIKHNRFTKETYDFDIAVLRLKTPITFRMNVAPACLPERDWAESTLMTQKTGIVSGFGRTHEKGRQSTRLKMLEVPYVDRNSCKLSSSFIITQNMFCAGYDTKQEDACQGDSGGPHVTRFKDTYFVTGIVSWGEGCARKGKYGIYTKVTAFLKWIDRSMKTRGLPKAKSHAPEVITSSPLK

B1: Nb 501A02 (VHH)
VHH: EVQLVESGGGLVQPGGSLRLSCAASGFTFSNYEMSWVRQAPGKGLEWVSDIGSGGGVSTYYADSVKGRFTISRDNAKNTLYLQMNSLKPEDTAMYYCARGWTYGSDGMDYWGKGTLVTVSS
notes: monovalent control Nanobody; also called control Nanobody; not shown: C-terminal FLAG3 and HIS6 tag
0.76: ELISA signal relative to background [5] | ELISA signal relative to background [9] | ELISA signal relative to background [26]
0.74: ELISA signal relative to background [1] | ELISA signal relative to background [10] | ELISA signal relative to background [14] | ELISA signal relative to background [15] | ELISA signal relative to background [16] | ELISA signal relative to background [27]
0.94: ELISA signal relative to background [8] | ELISA signal relative to background [24]
0.91: ELISA signal relative to background [22]
0.71: ELISA signal relative to background [7] | ELISA signal relative to background [13] | ELISA signal relative to background [21] | ELISA signal relative to background [28] | ELISA signal relative to background [29] | ELISA signal relative to background [30]
0.79: ELISA signal relative to background [3] | ELISA signal relative to background [11] | ELISA signal relative to background [12] | ELISA signal relative to background [18] | ELISA signal relative to background [20]
no binding (tested: 2 µg/mL): binding result [1] | binding result [2] | binding result [3] | binding result [4] | binding result [5] | binding result [6] | binding result [7] | binding result [8] | binding result [9] | binding result [10] | binding result [11] | binding result [12] | binding result [13] | binding result [14] | binding result [15] | binding result [16] | binding result [17] | binding result [18] | binding result [19] | binding result [20] | binding result [21] | binding result [22] | binding result [23] | binding result [24] | binding result [25] | binding result [26] | binding result [27] | binding result [28] | binding result [29] | binding result [30] | binding result [31]
0.85: ELISA signal relative to background [25] | ELISA signal relative to background [31]
1.09: ELISA signal relative to background [23]
0.82: ELISA signal relative to background [4] | ELISA signal relative to background [6] | ELISA signal relative to background [17]
0.88: ELISA signal relative to background [2] | ELISA signal relative to background [19]
0.8 fold: Increase in FX activation (fold) [32]

B2: Nb 730C03 (VHH)
VHH: EVQLVESGGGVVQPGGSLRLSCVASGFTFSDYAMSWVRQAPGKGLEWVSGITSGSGRTYYADSVKGRFTISRDNSKNTVYLQMNSLRPEDTALYYCAAAILRGYRKTYDYWGQGTLVTVSS
notes: monovalent Nanobody; also called Nb 730003; not shown: C-terminal FLAG3 and HIS6 tag
1.22: ELISA signal relative to background [7] | ELISA signal relative to background [12] | ELISA signal relative to background [30]
1.2: ELISA signal relative to background [5] | ELISA signal relative to background [14] | ELISA signal relative to background [18]
1.3: ELISA signal relative to background [22]
1.06: ELISA signal relative to background [31]
1.19: ELISA signal relative to background [3] | ELISA signal relative to background [4]
1.24: ELISA signal relative to background [2] | ELISA signal relative to background [8] | ELISA signal relative to background [9] | ELISA signal relative to background [11] | ELISA signal relative to background [19]
2.1: ELISA signal relative to background [23]
1.18: ELISA signal relative to background [13] | ELISA signal relative to background [26]
1.16: ELISA signal relative to background [10] | ELISA signal relative to background [28] | ELISA signal relative to background [29]
1.25: ELISA signal relative to background [21]
1.17: ELISA signal relative to background [17]
1.26: ELISA signal relative to background [15]
9.2 fold: Increase in FX activation (fold) [32]
1.14: ELISA signal relative to background [16] | ELISA signal relative to background [27]
1.21: ELISA signal relative to background [1] | ELISA signal relative to background [6] | ELISA signal relative to background [20]
2.82: ELISA signal relative to background [24]
1.28: ELISA signal relative to background [25]
